For this assay, the target named is PKCα-YFP (mouse) (UniProt P20444). As to the kind of experiment: FRET or BRET.

This passage reports FRET efficiency results from article PMC2921846.

On to “Erk-CFP (from UniProt P63085 1-358) (natural protein)”, for which the FRET efficiency came to 7.19%.
